US20240294650A1 (Alector, published 2024)
Numbering of substitutions follows the chain as printed.

B1: MTK-227 (antibody, human IgG1, V domains shown)
VH: EVKLVESGGGLVQPGGSLSLSCAASGFTFTDNYMTWVRQPPGKALEWLGFSRNKANGYTTEYSASVKGRFTISRDSSQSILYLQMNALRAEDSGTYYCARFPPHYYAGGYFDVWGTGTTVTVSS
VL: DIQMTQSPASLSASVGETVTITCRASENIYSYLAWYQQKQGKSPQLLVYNAKTLAEGVPSRFSGSGSGTQFSLKINSLQPADFGSYYCQHYYRTPPTFGGGTKLEIK
B2: MTK-228 (antibody, human IgG1, V domains shown)
VH: QDQLQQSGPELVKPGASVKISCKASGYSFTSYYIHWVKQRPGQGLEWVGWIFPGNGNTKYNERFKGKATLTADTSSSTAYMQLSSLTSEDSAVYYCARLGLIYALDYWGQGTSVTVSS
VL: DAVMTQTPLSLPVSLGDQASISCRSSQSLENSNGNTYLHWYLQKPGQSPQLLIYRVSNRFSGVLDRFSGSGSGTDFTLKISRVEAEDLGVYFCLQVTHVPFTFGSGTKLEIK
B3: MTK-218 (antibody, human IgG1, V domains shown)
VH: B2 VH with D2V, A16T, E46D, V48I, G56R, K59Q, R63K
VL: B2 VL with N35H, L64Q
B4: MTK-226 (antibody, human IgG1, V domains shown)
VH: B2 VH with D2V, V48I, R63N, K65R
VL: B2 VL with N31S, K79Q
B5: MTK-223 (antibody, human IgG1, V domains shown)
VH: DVQLQESGPGLVKPSQSLSLTCSVTGYSITSGYYWNWIRQFPGNKLEWMGYISYDGTNNYNPSLKNRISITRDTSENQFFLKLNSVTTEDTATYFCVRGAGYWGQGTTLTVSS
VL: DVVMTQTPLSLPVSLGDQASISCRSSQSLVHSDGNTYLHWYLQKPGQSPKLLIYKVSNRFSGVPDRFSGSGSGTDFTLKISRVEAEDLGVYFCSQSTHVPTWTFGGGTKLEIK
B6: MTK-214 (antibody, human IgG1, V domains shown)
VH: QVQLQQPGAELVKPGASVKVSCKASGYTFTNYWMHWMKQRPGQGLEWIGRIHPFDSDTNYNEKFTDKATLTVDKSSSTAYMQLSSLTSEDSAVYYCAIGTLIYWGQGTTLTASS
VL: DILLTQSPATLSVTPGETVSLSCRASQSIYKKLHWFQQRSHRSPRLLIKFASDSISGIPSRFTGSGSGTDYTLSINSVKPEDEAIYYCLQGYSTPLTFGAGTKLELK
B7: MTK-224 (antibody, human IgG1, V domains shown)
VH: QVQLQQPGAELVKPGASVKVSCKASGYTFTSYWMHWVKQRPGQGLEWIGRIHPFDSDTNYNQKFKGKATLTVDKSSSTAYMQLSSLTSEDSAVYYCSIAGFAYWGQGTLVTVSA
VL: DIVMTQSPATLSVTPGDRVSLSCRASQIISDYLNWYQQKSHESPRLLIKYASQSISGIPSRFSGSGSGSDFTLSINSVEPEDVGVYYCQNGHSFPLTFGAGTKLELK
B8: MTK-203 (antibody, human IgG1, V domains shown)
VH: QVQLQQPGAELVKPGASVKVSCKASGYTFTNYWMHWVKQRPGQGLEWIGRIHPFDTETNDNQKFKGKATLTVDKSSSTAYMQLSSLTSEDSAVYYCVIPANGGFAYWGQGTLVTVSA
VL: ETTVTQSPASLSVATGEKVTIRCITSTDIGDDMNWYQQKPGEPPKVLISEGNSLRPGVPSRFSSSGYGTDFVFTIENTLSEDVADYFCLQSDNLPLTFGSGTKLEIK
B9: MTK-209 (antibody, human IgG1, V domains shown)
VH: B7 VH with S31N, M34I, D57E, T58P, Q82H, S84T, S97A, I98L, G100S
VL: ETTVTQSPASLSMAMGEKATIRCITSTDIDDKMNWYQQKPGKPPKLLISAGNTLRPGVPSRFSSSGYGTDFVLTVENMLSEDVADYYCLQGGALPLTFGSGTKLEIK
B10: MTK-230 (antibody, human IgG1, V domains shown)
VH: EVQLQQSGPELVKPGASVRIPCKASGYTFSDYNMDWVKQSHGKSLEWIGNINPNIGGTIYSQKFKGKATLTVDKSSSTAYMELRSLTSEDTAVYYCARGDYGFASWGQGTLVTVSA
VL: DIVLTQSPASLTVSLGQRATISCRASRSVSTSGYSYMHWYQQKPGQPPKLLIYLASNLESGVPARFSGSRSGTDFTLNIHPVEEEDAATYYCQHSREYPFTFGSGTKLEIK
B11: MTK-201 (antibody, human IgG1, V domains shown)
VH: QVQLRQSGPGLVQPSQSLSITCTVSGFSLSNYGLHWVRQSPGKGLEWLGVIWSGGITDYNAAFISRLSIIKDNSRSQVFFKMNSLQADDTAIYYCARKGHDPYAMDFWGQGTSVTVSS
VL: QIVLTQSPPIMSAFLGERVTMTCTASSSVSSSYLHWYRQMPGSSPKLWIYDTSNLASGVPARFSGSGSGTSYSLTISSMEAEDAATYYCHQYHHSPYTFGGGTKLEIK
B12: MTK-211 (antibody, human IgG1, V domains shown)
VH: QVQLQQSGAELMKPGASVKLSCKATGYTFTGYWIEWVKQRPGHGLEWIGEILPGSGGSNYNEKFKGKATFTADTSSNTAYIQLSSLTTEDSAIYCCARGEPSYFSDAGFAYWGQGTLVTVSA
VL: QIVLTQSPAVMSASPGEKVTMTCSASSSITYMHWYQQKPGTSPKRWIYDTSKLASGVPARFSGSGSGTSYFLTISSMEAEDVATYYCHQRSTYPYTFGGGTKLEIM
B13: MTK-216 (antibody, human IgG1, V domains shown)
VH: EVQLVESGGGLVKPGGSLKLSCAASGFTFSDYGMHWVRQAPEKGLEWVAFISSGSTTIYYADTVKGRFTISRDNAKNTLILQMTSLRSEDTAIYYCTRGGFHLDYWGQGTTLTVSS
VL: SIMMTQSPSSLAVSAGEKVTMGCKSSQSVLYSANQQNYLAWYQQKPGQSLKLLIYWASTRESGVPDRFTGSGSGTDFTLTISSVQAEDLAVYYCHQYFSSWTFGGGTKLEIK
B14: MTK-215 (antibody, human IgG1, V domains shown)
VH: EVQLVESGGGLVKPGGSLKLSCAASGFIFSDYGMHWVRQAPEKGLEWVAYISSGSSTIYYGDTVKGRFTISRDNAKNTLFLQMTSLRSEDTAMYYCAKGGRYGAMDYWGHGTSVTVSS
VL: DIVLTQSPATLSVTPGDSVSLSCRASQSISNNLHWYQQKSHESPRLLIKNPSQSISGIPSRFGARGSGTDFTLIINSVETEDLGVYFCQQSNSWPFTFGSGTKLEIK
B15: MTK-208 (antibody, human IgG1, V domains shown)
VH: QVQLQQPGAELVVPGASVRLSCKASGYTFINYWMHWVKQRPGQGLEWIGEIDPSDSYANYNQKFKDKSTLSLDKSSSTAYMQLSSLTSEDSAVYYCARCDYYGRLDYWGQGTTLTVSS
VL: QVVLTQSPAIMSASPGEKVTITCSASSSVSYMLWFQQKPGTSPKLWIYSTSNLASGVPARFSGSGSGTSYSLTISRLEAEDAATYYCQQRSSYPPITFGAGTKLELK
B16: MTK-207 (antibody, human IgG1, V domains shown)
VH: QVQLKESGPGLVAPSQSLSITCTVSGISLTSYGVSWVRQPPGKGLEWLGIIWGDGSTNYHSALISRLSISKDNSKSQVFLKLNSLQTDDTATYYCAKGRYGNYEDWYFDVWGTGTTVTVSS
VL: DIQMTQSPASLSASVGETVTITCRASGNIHNYLAWYQQKQGKSPQLLVYNAKTLAAGVPSRFSGSGSGTQYSLKINSLQPEDFGSYYCQHFWSIPLTFGAGTKLELK

These binders were tested against T1, Full Axl (ECD domain of human Axl) (human, UniProt P30530 26-451) (assay: SPR (data not shown)).
T1 construct: also called human Axl ECD
T1 sequence: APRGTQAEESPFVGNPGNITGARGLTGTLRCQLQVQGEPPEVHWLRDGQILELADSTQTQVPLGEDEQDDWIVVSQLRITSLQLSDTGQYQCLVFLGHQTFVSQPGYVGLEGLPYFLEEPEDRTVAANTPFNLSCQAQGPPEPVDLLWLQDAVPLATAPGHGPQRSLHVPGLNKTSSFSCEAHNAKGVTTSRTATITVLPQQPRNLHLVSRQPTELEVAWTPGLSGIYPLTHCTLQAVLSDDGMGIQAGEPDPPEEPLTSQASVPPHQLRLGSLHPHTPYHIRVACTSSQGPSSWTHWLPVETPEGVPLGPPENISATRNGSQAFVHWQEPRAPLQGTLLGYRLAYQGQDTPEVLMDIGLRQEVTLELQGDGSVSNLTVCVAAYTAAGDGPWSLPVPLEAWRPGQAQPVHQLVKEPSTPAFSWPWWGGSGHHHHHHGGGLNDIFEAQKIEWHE
Method: Binding of anti-MerTK antibodies of the present disclosure to these domain-swapped chimera or deletion mutants was tested by Surface Plasmon Resonance (SPR) using Carterra LSA. Purified anti-MerTK antibodies were immobilized in duplicate on a HC30M chip (Carterra) by amine coupling, following the manufacturer's instructions (described previously).
Supernatants containing the constructs were diluted 1:1 with running buffer containing 0.5 mg/mL BSA (HBS-TE, Carterra; BSA, Sigma) and injected over the immobilized antibodies. The surface was regenerated with 10 mM Glycine pH2.0 after each construct injection. Sensorgrams were analyzed using Carterra Epitope software to identify patterns of construct binding. Loss of binding to MerTK constructs with domains deleted or swapped in from Axl and/or gain of binding to Axl constructs with MerTK domains swapped in were evaluated. Data from these studies were used to construct a domain binding map for anti-MerTK antibodies and their binding to various domains of human MerTK.

Row | Binder | binding result
1 | B1 | no binding
2 | B2 | no binding
3 | B3 | no binding
4 | B4 | no binding
5 | B5 | no binding
6 | B6 | no binding
7 | B7 | no binding
8 | B8 | no binding
9 | B9 | no binding
10 | B10 | no binding

Each binder was assayed against T2, human MerTK (human, UniProt Q12866 21-999) (assay: cell-based or functional assay).
T2 sequence: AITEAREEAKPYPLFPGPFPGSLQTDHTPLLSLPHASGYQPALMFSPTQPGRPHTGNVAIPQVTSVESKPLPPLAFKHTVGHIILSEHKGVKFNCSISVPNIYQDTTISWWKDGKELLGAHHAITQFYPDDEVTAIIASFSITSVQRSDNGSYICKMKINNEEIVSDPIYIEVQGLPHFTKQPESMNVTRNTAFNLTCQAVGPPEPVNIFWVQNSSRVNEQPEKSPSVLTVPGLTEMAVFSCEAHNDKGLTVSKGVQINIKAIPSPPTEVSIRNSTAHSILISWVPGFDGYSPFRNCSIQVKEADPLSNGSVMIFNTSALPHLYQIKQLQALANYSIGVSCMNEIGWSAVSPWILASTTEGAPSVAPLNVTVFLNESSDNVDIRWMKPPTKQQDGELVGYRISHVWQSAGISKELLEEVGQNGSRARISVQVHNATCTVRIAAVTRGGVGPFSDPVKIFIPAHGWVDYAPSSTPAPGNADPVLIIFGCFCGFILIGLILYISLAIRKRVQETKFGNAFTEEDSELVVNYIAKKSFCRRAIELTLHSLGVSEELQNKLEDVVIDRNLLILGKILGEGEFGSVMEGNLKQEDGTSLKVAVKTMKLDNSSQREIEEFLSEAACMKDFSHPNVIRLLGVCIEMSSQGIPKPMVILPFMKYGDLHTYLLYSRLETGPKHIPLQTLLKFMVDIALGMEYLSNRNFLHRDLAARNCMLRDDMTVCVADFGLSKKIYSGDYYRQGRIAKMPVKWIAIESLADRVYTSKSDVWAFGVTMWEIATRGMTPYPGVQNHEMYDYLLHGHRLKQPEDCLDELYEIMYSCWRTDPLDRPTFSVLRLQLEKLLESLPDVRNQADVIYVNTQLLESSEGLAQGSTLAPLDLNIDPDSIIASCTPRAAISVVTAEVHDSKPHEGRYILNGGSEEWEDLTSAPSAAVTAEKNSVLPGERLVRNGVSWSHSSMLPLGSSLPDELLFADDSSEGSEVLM

Row | Binder | EC50 (nM), pAKT in SK-MEL-5 cells | Fold increase in PAKT over IgG control
11 | B1 | 1.89 nM | 4.7 fold
12 | B11 | 0.65 nM | 4.3 fold
13 | B2 | 0.53 nM | 4.2 fold
14 | B3 |  | 4.5 fold
15 | B4 | 0.53 nM | 4.2 fold
16 | B5 |  | 4.1 fold
17 | B12 |  | 4 fold
18 | B13 |  | 3.2 fold
19 | B14 | 208 nM | 2.6 fold
20 | B15 |  | 2.6 fold
21 | B16 |  | 1 fold
